This series is described as follows: label from the status in PepcDB records.

Turning to “MKPRDINKLIASKIFGYEIKDDNIIKDGRYRLGIPLYSQNIESAWQVVEKLEYDVKVTKTDLKPKYQVHVFVPGGVKMVFAETAPMAICKGALASVDIELQD”, the protein production result is on record as “not failed”.
Consider “MKPRIYVKVKPERLGAVIGPRGEVKAEIMRRTGTVITVDTENSMVIVEPEAEGIPPVNLMKAAEVVKAISLGFPPEKAFRLLEEDQILVVVDLKQVVGDSQNHLKRIKGRIIGEGGRARRTIEEMTDTYINVGEYEVAIIGDYERAMAAKQAIEMLAEGRMHSTVYRHLERIMREIKRRERLKMWAREEL”, for which the protein production entry is “not failed”.
As for “MKPRVEILMSTYNGEKFLAEQLDSILAQTHQYFVLTVRDDGSKDGTPDILSRYAATDERITYCVQENRGVVGSFYWLLKNSSPLSNYVAFSDQDDVWLPNKLERALDVLSRYDETLPLLYCSRVEYVSAGLGHLDDSPMMVRPVCLNNALIQNVATGCTVVMNKAARDLLLEREWPPQVLMHDWWSYIVVSAFGKVVYDDFVSIKYRQHGGNVIGGTVSFVSDYRSRIINFLSRRRKGVFGCYDQAYSFWLGYKDELKGESRGIVSQFIESKRSFLSRLNYLTSSQRVYRHRFIDDVLVRLLILSNKYLEHHHHHH”, the protein production result is recorded as “failed”.
For “MKPSHQQQKQASAAKDEKKDIIPLSAEKADGAEGWLNNSTILYTASNPTKTELFPYRIFTGKAKKLYQTDGQIVDVQINAREQMILLQITHSQKTAVVLLNAEGETLYEKDYETYELEAAWNQYDPYQMMVTEFNENWDFHTYQVNAKKDESFLSPVQVPFIHWTSKNTFDYVKEGRDDKTGPLYTFDTASKTEQKLEDNVLFFDSFHQMSFTVKSASGGKGTYQFKTPQSTSPVTAKWPLQAKYTSLAPMEYDYDEAGSLFYTFKQSGDAYKLAAINVASGETKDLVSLREMEPIQISPNGKYALYGFHFEQIILLKSHETKQLIIDQKEMELEHHHHHH”, the protein production result is on record as “failed”.
“MKPSKYSVKAQGHGSSYMPMEVTLSKDKIEDINVDASGETRGVADEVFNRLPKLIVDNQTLNIDAVSGATISSHGVIDGVAQTINEAGGNSEEWKRRAKPRKVLLKKTKNMILMLEHHHHHH”: the protein production entry was “not failed”.
With “MKQARRHCWRRGIAATLIGGVISRRGTRASIGRDGLQLRFAALPWRTRCVAAAFCRFVKRSTRTPRARQESAVGLATLDIVIVLVYLTGIFVLAQWVSREKAGHSKSAEDYFLASKSLPWWAIGASLIAANISAEQIIGMAGSGYAIGLAIASYEWMAALTLLIVGKFFLPIFLRNGIYTMPQFLEQRYGKWIRTLMAVFWLLLYVFVNLTSILWLGSIAVSQVTGMDQTLALALIGVFALVYQLYGGLKAVALTDIVQVTLLVLGGLLVAALTLARIGDGAGVLEGFQHLWNAHPEHFHMILTKDNPFYKDLPGLSVLLGGLWVMNISYWGFNQYIIQRALAAKNIGEAQKGMVFAAFLKLLMPLVIVVPGIAAVVLAPDLAKPDQAYPTMMQLLPTGMLGLVFAALVAAIVASLASKINSVATIFTLDFYAKFRPQTEQKQLVRVGRIVAAVSVLIGILTARPLLGNFDQGFQFIQEFTGFFTPGVVVIFMLGLFWKRANEAGALTAAIGSVVLSFVLKFAWPELPFMDRIGVVFVAALMLAVLVSLLTPATQARDLIRTNEVAYGTTLSFKIGAAGVIAILIVLYTVFW”, the protein production result is recorded as “failed”.
For “MKQHILVLEDANQRRTIILDEQQYSIGRHSGTSIQIHSRQASRHHATLMRKTNSKTNEECFWIIDGDLEGNKSQNGVFVNGEKRLIHELKNGDLINFGCSINALEHHHHHH”, the protein production result is recorded as “failed”.
Take “MKQKLLVTLLGLSALGASPVFAANTNVDLAEDAYIYGYSIDEAYKFFYHTAVENNYPLNEFQNRRALADDSYTAHPTINNDTLHLMGWLDVAAEPVIVSVPDMDEGRYWILHTMDMGHYTNAAFSSRTRGTKGGQFMFAAQDWQGEVPASVDEVVRVDSNLVKLMGRIMAVNDEDAKVALNYMDQWNIRTLSEYLGKNGPKPVQRTYPDPKKSTWLERVNFVLCDGSMGNADKQWLDKYQSIGVEPCKTDFTPEQLKLAKVGEKKGMEHLVELAPKMTDARTLLGTRDTLGDAPRDIFAEGTYLGQWGLPPIEASYRKSDFDSIGQKLDGSKHDYVMRFKAPNVSEFWSVTIYGNDNRLMAKNDLNRHSRGDRTMKADKDGYYTIYMSANEKGRADDPNFLPVPEKPFYAIMRFYGADDAIQSGEYQMPEIKVVKLEHHHHHH”: the protein production entry is given as “not failed”.
Then “MKQKLLYLCLFVTLAVVGHSYIIYRFIHDGVLFTGPNDGMEQMVPIQMYLFDNWHHGNFFYASDFGLGGDFFSDLSYYFSTNIIFIINVIVIVLLKTFITLDTTHIMFWMTNALIVSIFKSAIAMLATYLYVRYIALNKKIAVLAAFIFVISPIYFRFTVYWPFFSDVFIWLPLLLWSIERFLKSGKIGFFIIIVAITLINNFYFAYYQLLTGLIYLTIRLVFRHQADIIPRFKSFMSLFIASVIGLGCSLPFFFPAIQSFFNNRRTPFDGNVDLFEPFNQNTNVFYDNYLIVILFITGQALLSFKLYKHYYFKLFAISTLILICASFVPFIDQIFNGFSAPQKRWHYLIAFNSAVLIGLYVKYFRTISIPNYIFSSVISLSIIGLSAWYYDDVVAWVWFAPIVSLIGFLILLINESHIKLKLTHLFVLSIMILTVLVSTVFIRNQIYFEDHVKRANAYFVNASLFNTPLQQQLVKDMNTHKLEDERIDWRVNEQDNTPMYQQFKGLSIYSSIFDHHILDFYYDELKINMQEESVSRYQSTNGRQNMSSLFSIKYLMVKRYQHNIPAYFKKIKNDGQYEIYENTLNLPSVRVSNKKYNSNDLHNPIDKEHAMMDGVILNNKGASYTAKAPNLLNQTRITYKDIDNKRNHQIHASKNDSHVQIHIPKHLRQRYHDFYLTIKVKRGLPDSNFSVQINNYTNNRLYNNSTYRTGVDTQLYRTQPDKNGNINVGLSPTGNYYLDIQSLHGENYNHLKSAYAKQNNDGHYTDIKNGVKVKLGPHEKGIATINIPYREGMTAYVDNKKIKPLNVNYMMTGVPVSKDSKEIIIKYRPKYWYTVTAISIIFIIGSLSWFMRKRYKNK”, with “failed”; and “MKQLSFNKLYFEGIKDAIPISIGYLPIGMAFGVLAKSMGIPYEISILMSLIIFAGASQFVGVNLIAIGTSSFEIVLTTFILNLRHFLMSSSLSQRIDYTKSKKFLSLISFGVTDETFAVASLKEELKLSPEFLFGLNFTAFFAWNFGTVLGIFLAESIPKEIQSSMGISLYVMFIGLLIPAVRRSTKVLKIFLVAVFISSALTWVPVFKFISTGWIIIITTIVASFIGAKFIHGDGDE”, with “failed”; and “MKQNQYLFLLFTLIVLTGCGGTQKKLTEYVNPFLGTATLWEPEDLGYTRKIKSRTWGAETYPGATLPNAMVQLSPVTQFRSGAGYQYEDTVIYGFSHTAKGHWNLLHVPMLPVVGTIAPGNYCSGFSHEKESAHPGYYQVYLERYKVNAELTSTLRCAYHKYTFAKGDDKSLLVDIRRSNNDVRDWKIEKVDDNTFTGYQDGDGKIYFYAKTNYKIGQVEMVKDDKHEVAVLRFIDSKGVEPLEVKAGFSFVSIENAQMNLKAEMLNKSFAQVAEEADAAWEALLSKIQVAGGTEREKRLFYSTFFHAFKWPALRSDVNHEYTDVRGEVVNNGFHYYTDPSFWDDYRNKLVLIGMISPDVTTDIIRSIIDKGEKRDGYMPTFFHGDHASTFISGSWLRGLHDFDLERAYKLILKNATVPGKGGRRYLDEYMERGWIAEKDTVNVPTWDEYKGAVTKTQEYAYDDYAVALVAKELGDEANYKLMMERSNNYKTLFDPSTGFWRGKIDDGSWIQDFDPYYPYYQYMYREANAWNALFFAPHDPEGMIKLYPSKEAVEAKLDSLFSEPWRGYEAHNLTGFIGNYCHGNQPGHSIPYTYYFIDKQEKAQCILDSLMNHYYDMGADKLAYAGMDDAGEMSSWYVLNAIGLYTYSPADPEYIVTVPLFDKVTFNLNGRPFTIVKKGSGKKIIDITYDGKKIDGYFITHDQLREGKELVITTE”, with “failed”.
In the case of “MKQPLRVLISCRPEENSGGKRSEQNDAVFEFAAWLARTSDINVRGITTFIRPWPSSSISKLGGKYHKWYKNLDSYYRSRTIKGLKEAGVEKSQWDDDVSVFVDGPSESTLLTHAAEEFEADLILLGSDATAPKGRFLASSTADALLHSSPVPLGLVPRGVKLSKKGVTRVNYAFTNESDDFEQGLRSSAELATNWNVPLRILAFSPTGITSAPTSRSLDISTELSSEWRELTLAMLDRARDGVLTDHPNLSVSSETGSGWGWSGAIDALRWKKGDLLCMGSHRTDTLSRVFVGSETMEIIRNSPVPTIIYPGL”, the protein production entry is recorded as “failed”.
